Source: paper PMC6351562, “Structure, function, and inhibition of drug reactivating human gut microbial β-glucuronidases” (Scientific Reports, 2019)

Test system: O=C(O)[C@H]1O[C@@H](Oc2ccc([N+](=O)[O-])cc2)[C@H](O)[C@@H](O)[C@@H]1O
Experiment: purified protein, by the assay type
Conditions: other: pNPG as substrate, optimal pH 5.0, 37 °C

Substance: Bacteroides fragilis GUS (BfGUS) (Bacteroides fragilis NCTC 9343)
- Km: 580 ± 90 µM
- kcat: 22 s⁻¹
- kcat/Km: 39000 M⁻¹ s⁻¹
